In article PMC11079029, “Intramolecular autoinhibition regulates the selectivity of PRPF40A tandem WW domains for proline-rich motifs” (Nature Communications, 2024):
Several values for one entry are separate records, joined by “and”; a condition that tells them apart may be missing. Equal values may be shown once.

Experiments:
Conditions in all cases: both partners purified
[1] = target: T1, PRPF40A WW12 (tandem WW domains, residues 141-236) (human, UniProt O75400 141-236); experiment: ITC; MicroCal PEAQ-ITC, 25 °C, 20 mM sodium phosphate pH 6.5, 100 mM NaCl; GB1-tagged SF1/SF3A1 constructs in the syringe, WW12 in the cell (N sites <1: more than one WW tandem on one construct); one-site model; apparent
T1 construct: pETM11 vector (NcoI/KpnI); also called PRPF40A WW tandem; isolated WW domains; source: E. coli BL21(DE3), purified (Ni-NTA, TEV cleavage, reverse Ni-NTA, SEC); not shown: His6, N-terminal, cleaved

[2] = target: T2, PRPF40A WW12 (tandem WW domains, residues 141-236) (human, UniProt O75400 141-236); experiment: ITC; GB1-tagged SF1/SF3A1 constructs in the syringe and the WW tandem in the cell; 25 °C, 20 mM sodium phosphate pH 6.5, 100 mM NaCl; one-site model; apparent affinities
T2 construct: pETM11 vector, NcoI/KpnI; 15N or 13C,15N labelled for NMR; also called PRPF40A WW tandem; PRPF40A tandem WW domains; source: E. coli BL21(DE3), purified (Ni-NTA, TEV, reverse Ni-NTA, SEC); not shown: His6, N-terminal, cleaved

[3] = target: T3, PRPF40A WW12 (tandem WW domains, residues 141-236) (human, UniProt O75400 141-236); experiment: ITC; GB1-peptide or GB1-SF1 construct in the cell, PRPF40A WW12 in the syringe (as shown in Supplementary Figures 7 and 16A); 25 °C, 20 mM sodium phosphate pH 6.5, 100 mM NaCl; one-site binding model; at least duplicates; affinities apparent
T3 construct: A few vector residues probably remain at the N-terminus after TEV cleavage (pETM11, NcoI site); 15N-labelled in the NMR experiments; also called PRPF40A WW tandem; WW12 wt; source: E. coli BL21(DE3), purified (Ni-NTA, TEV digestion, reverse Ni-NTA, SEC); not shown: His6, N-terminal, cleaved

[4] = target: T3, PRPF40A WW12 (tandem WW domains, …); experiment: ITC; PRPF40A construct (WW12, N-ext-WW12 or its mutant) in the cell, GB1-SF1 or GB1-SF3A1 construct in the syringe (as shown in Supplementary Figures 16 and 21); 25 °C, 20 mM sodium phosphate pH 6.5, 100 mM NaCl; one-site binding model; at least duplicates; affinities apparent
[5] = target: T1, PRPF40A WW12 (tandem WW domains, …); experiment: ITC; MicroCal PEAQ-ITC, 25 °C, 20 mM sodium phosphate pH 6.5, 100 mM NaCl; GB1-polyproline peptides in the cell, WW12 in the syringe (N sites >1: more than one WW tandem on one peptide); one-site model; apparent

B1: GB1-SF1 Pro D (residues 594-639) (domain or fragment, UniProt Q15637 594-639, looked up)
chain: GMMYAPPPPPPPPMDPSNFVTMMGMGVAGMPPFGMPPAPPPPPPQN
notes: SF1 (splicing factor 1) residues 594-639, the very C-terminal region; pET24 vector with 6xHis, GB1 and TEV site as N-terminal cassette, not cleaved; source: E. coli BL21(DE3), purified (Ni-NTA, SEC); not shown: GB1, N-terminal, kept
Kd [1]: 10.3 µM and 9.94 µM and 10.1 µM | stoichiometry N [1]: 0.84 and 0.9 and 0.87

B2: GB1-tagged SF1 Pro D (594-639) (domain or fragment, UniProt Q15637 594-639, looked up)
chain: B1 chain
notes: SF1 residues 594-639; also called the very C-terminal region; source: E. coli BL21(DE3), purified (Ni-NTA, SEC), GB1 tag kept; not shown: GB1, N-terminal, kept
Kd [2]: ~10 µM

TMVPLPPGVQPPLPPG [GB1-SF1 16-mer peptide 565-580]
Kd [3]: 30.4 ± 6.7 µM

B3: GB1-SF1 Pro A (residues 410-468) (domain or fragment, UniProt Q15637 410-468, looked up)
chain: GHPMQHNPNGPPPPWMQPPPPPMNQGPHPPGHHGPPPMDQYLGSTPVGSGVYRLHQGKG
notes: splicing factor 1 (SF1), residues 410-468 of the proline-rich C-terminal region; His6-GB1-TEV site cassette of the pET24 vector, not cleaved; source: E. coli BL21(DE3), purified (Ni-NTA, SEC); not shown: GB1, N-terminal, kept
Kd [3]: 25.1 ± 6.5 µM

B4: GB1-SF1 Pro A (residues 410-468) (domain or fragment, UniProt Q15637 410-468, looked up)
chain: B3 chain
notes: SF1 (splicing factor 1) residues 410-468 of the proline-rich C-terminal region; pET24 vector with 6xHis, GB1 and TEV site as N-terminal cassette, not cleaved; source: E. coli BL21(DE3), purified (Ni-NTA, SEC); not shown: GB1, N-terminal, kept
Kd [1]: 24.8 µM and 25.4 µM and 25.1 µM | stoichiometry N [1]: 0.97 and 1 and 0.99

B5: GB1-SF1 Pro CD (residues 539-639) (domain or fragment, UniProt Q15637 539-639, looked up)
chain: GSIPPWQQQQAAAAASPGAPQMQGNPTMVPLPPGVQPPLPPGAPPPPPPPPPGSAGMMYAPPPPPPPPMDPSNFVTMMGMGVAGMPPFGMPPAPPPPPPQN
notes: splicing factor 1 (SF1), residues 539-639; His6-GB1-TEV site cassette of the pET24 vector, not cleaved; source: E. coli BL21(DE3), purified (Ni-NTA, SEC); not shown: GB1, N-terminal, kept
stoichiometry N [4]: 0.39 ± 0.02 sites

B6: GB1-SF1 Pro CD (residues 539-639) (domain or fragment, UniProt Q15637 539-639, looked up)
chain: B5 chain
notes: SF1 (splicing factor 1) residues 539-639; pET24 vector with 6xHis, GB1 and TEV site as N-terminal cassette, not cleaved; source: E. coli BL21(DE3), purified (Ni-NTA, SEC); not shown: GB1, N-terminal, kept
stoichiometry N [1]: 0.42 and 0.38 and 0.36 and 0.39

B7: GB1-SF1 Pro BCD (residues 468-639) (domain or fragment, UniProt Q15637 468-639, looked up)
chain: GMMPPPPMGMMPPPPPPPSGQPPPPPSGPLPPWQQQQQQPPPPPPPSSSMASSTPLPWQQNTTTTTTSAGTGSIPPWQQQQAAAAASPGAPQMQGNPTMVPLPPGVQPPLPPGAPPPPPPPPPGSAGMMYAPPPPPPPPMDPSNFVTMMGMGVAGMPPFGMPPAPPPPPPQN
notes: splicing factor 1 (SF1), residues 468-639; His6-GB1-TEV site cassette of the pET24 vector, not cleaved; source: E. coli BL21(DE3), purified (Ni-NTA, SEC); not shown: GB1, N-terminal, kept
stoichiometry N [4]: 0.28 ± 0.02 sites

B8: GB1-SF1 Pro BCD (residues 468-639) (domain or fragment, UniProt Q15637 468-639, looked up)
chain: B7 chain
notes: SF1 (splicing factor 1) residues 468-639; pET24 vector with 6xHis, GB1 and TEV site as N-terminal cassette, not cleaved; source: E. coli BL21(DE3), purified (Ni-NTA, SEC); not shown: GB1, N-terminal, kept
stoichiometry N [1]: 0.3 and 0.26 and 0.28

PPPPPPPPPPPPPPPPPPP [GB1-polyproline peptide P19]
Kd [3]: 6.76 ± 0.96 µM

B9: GB1-SF1 Pro ABCD (residues 410-639) (domain or fragment, UniProt Q15637 410-639, looked up)
chain: GHPMQHNPNGPPPPWMQPPPPPMNQGPHPPGHHGPPPMDQYLGSTPVGSGVYRLHQGKGMMPPPPMGMMPPPPPPPSGQPPPPPSGPLPPWQQQQQQPPPPPPPSSSMASSTPLPWQQNTTTTTTSAGTGSIPPWQQQQAAAAASPGAPQMQGNPTMVPLPPGVQPPLPPGAPPPPPPPPPGSAGMMYAPPPPPPPPMDPSNFVTMMGMGVAGMPPFGMPPAPPPPPPQN
notes: splicing factor 1 (SF1), residues 410-639, the complete proline-rich C-terminal region; His6-GB1-TEV site cassette of the pET24 vector, not cleaved; source: E. coli BL21(DE3), purified (Ni-NTA, SEC); not shown: GB1, N-terminal, kept
stoichiometry N [4]: 0.28 ± 0.05 sites

B10: GB1-SF1 Pro ABCD (residues 410-639) (domain or fragment, UniProt Q15637 410-639, looked up)
chain: B9 chain
notes: SF1 (splicing factor 1) residues 410-639, the complete proline-rich C-terminal region; pET24 vector with 6xHis, GB1 and TEV site as N-terminal cassette, not cleaved; also called complete C-terminal region of SF1; source: E. coli BL21(DE3), purified (Ni-NTA, SEC); not shown: GB1, N-terminal, kept
stoichiometry N [1]: 0.33 and 0.23 and 0.28

B11: GB1-polyproline peptide P25 (peptide)
chain: GAMSGSPPPPPPPPPPPPPPPPPPPPPPPPPSGSN
notes: common N-terminal residues after the TEV site (TEVsite-GAMSGS-peptide-SGSN); 25 consecutive prolines; common C-terminal residues; pET24 vector with 6xHis, GB1 and TEV site as N-terminal cassette, not cleaved; also called polyproline length 25; source: E. coli BL21(DE3), purified (Ni-NTA, SEC); not shown: GB1, N-terminal, kept
Kd [5]: 10.5 µM and 11 µM and 10.8 µM

B12: GB1-SF1 Pro B (residues 468-539) (domain or fragment, UniProt Q15637 468-539, looked up)
chain: GMMPPPPMGMMPPPPPPPSGQPPPPPSGPLPPWQQQQQQPPPPPPPSSSMASSTPLPWQQNTTTTTTSAGTG
notes: splicing factor 1 (SF1), residues 468-539 of the proline-rich C-terminal region; His6-GB1-TEV site cassette of the pET24 vector, not cleaved; source: E. coli BL21(DE3), purified (Ni-NTA, SEC); not shown: GB1, N-terminal, kept
Kd [3]: 20.6 ± 4.9 µM

B13: GB1-SF1 Pro B (residues 468-539) (domain or fragment, UniProt Q15637 468-539, looked up)
chain: B12 chain
notes: SF1 (splicing factor 1) residues 468-539 of the proline-rich C-terminal region; pET24 vector with 6xHis, GB1 and TEV site as N-terminal cassette, not cleaved; source: E. coli BL21(DE3), purified (Ni-NTA, SEC); not shown: GB1, N-terminal, kept
Kd [1]: 15.7 µM and 16.1 µM and 20.6 µM | stoichiometry N [1]: 1.3 and 1.15

PPPPPPPPPPPPPPPP [GB1-polyproline peptide P16]
Kd [3]: 3.35 ± 0.27 µM

B14: GB1-polyproline peptide P29 (peptide)
chain: GAMSGSPPPPPPPPPPPPPPPPPPPPPPPPPPPPPSGSN
notes: common N-terminal residues after the TEV site (TEVsite-GAMSGS-peptide-SGSN); 29 consecutive prolines; common C-terminal residues; pET24 vector with 6xHis, GB1 and TEV site as N-terminal cassette, not cleaved; also called polyproline length 29; source: E. coli BL21(DE3), purified (Ni-NTA, SEC); not shown: GB1, N-terminal, kept
Kd [5]: 7.3 µM and 11 µM and 9.15 µM
